The source of these data is patent publication US20250197488A1 (MABWELL SHANGHAI BIOSCIENCE, published 2025).

T1: human IL-11 (AAH12506.1, Pro22-Leu199) (human, UniProt P20809 22-199)
T1 construct: The range Pro22-Leu199 counts on AAH12506.1; The Octet runs say only 'human IL-11'; also called hIL-11
T1 chain: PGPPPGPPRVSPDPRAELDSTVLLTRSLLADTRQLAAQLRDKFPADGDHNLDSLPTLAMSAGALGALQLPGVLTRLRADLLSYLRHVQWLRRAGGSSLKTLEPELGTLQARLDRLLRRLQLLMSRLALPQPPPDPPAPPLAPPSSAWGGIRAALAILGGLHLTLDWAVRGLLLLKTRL

T2: IL-11 (Cat. 12225-HNCE, Sino Biological Inc.) (UniProt P20809 22-199, limits assumed)
T2 sequence (looked up): T1 chain with L154H

B1: hz18A10-VHm19 + hz18A10-VLm19 (antibody, human IgG1, kappa, V domains shown)
VH: EVQLVQSGAEVKKPGASVKVSCKASGYTFTHYNMDWVRQAPGQGLEWMGTIYPGNADTSYNQKFKGRVTMTRDTSTSTVYMELSSLRSEDTAVYYCARGDLYALDYWGQGTLVTVSS
VL: DIQMTQSPSSLSASVGDRVTITCKASQSVYRDVAWYQQKPGKAPKLLIYSASNRYTGVPSRFSGSGSGTDFTFTISSLQPEDIATYYCQHDYSSPYTFGQGTKLEIKR
notes: named hz18A10m19; also called hz18A10m19
B2: hz18A10-VH + hz18A10-VLm9 (antibody, V domains shown)
VH: B1 VH with H31T, A56G
VL: DIQMTQSPSSLSASVGDRVTITCKASQSVYSDVAWYQQKPGKAPKLLIYSASNRYTGVPSRFSGSGSGTDFTFTISSLQPEDIATYYCQHDYSSPYTFGQGTKLEIK
notes: Constant regions not restated for this antibody
B3: hz18A10-VH + hz18A10-VLm1 (antibody, V domains shown)
VH: B1 VH with H31T, A56G
VL: B2 VL with Q27K, Y30S, S31N
notes: as for B2
B4: hz18A10-VHm1 + hz18A10-VLm9 (antibody, V domains shown)
VH: B1 VH with H31T, A56G, Y102H, A103F
VL: B2 VL
notes: as for B2
B5: hz18A10-VH + hz18A10-VLm5 (antibody, V domains shown)
VH: B1 VH with H31T, A56G
VL: B2 VL with Y30S, S31N, V33I
notes: as for B2
B6: hz18A10-VH + hz18A10-VLm12 (antibody, V domains shown)
VH: B1 VH with H31T, A56G
VL: B2 VL with Y30S, S31N, N53S
notes: as for B2
B7: hz18A10-VH + hz18A10-VLm17 (antibody, V domains shown)
VH: B1 VH with H31T, A56G
VL: B2 VL with S31R, S50R
notes: as for B2
B8: hz18A10-VHm2 + hz18A10-VL (antibody, V domains shown)
VH: B1 VH with H31T, A56G, Y102H, A103Y
VL: B2 VL with Y30S, S31N
notes: as for B2
B9: hz18A10-VH + hz18A10-VLm6 (antibody, V domains shown)
VH: B1 VH with H31T, A56G
VL: B2 VL with Y30F, S31H
notes: as for B2
B10: hz18A10-VH + hz18A10-VLm11 (antibody, V domains shown)
VH: B1 VH with H31T, A56G
VL: B2 VL with Y30S, S31N, S50R
notes: as for B2
B11: hz18A10-VH + hz18A10-VLm3 (antibody, V domains shown)
VH: B1 VH with H31T, A56G
VL: B2 VL with Q27H, Y30S, S31N
notes: as for B2
B12: hz18A10-VH + hz18A10-VLm8 (antibody, V domains shown)
VH: B1 VH with H31T, A56G
VL: B2 VL with S31H
notes: as for B2
B13: hz18A10-VH + hz18A10-VLm18 (antibody, V domains shown)
VH: B1 VH with H31T, A56G
VL: B2 VL with S31R, S50R, N53S
notes: as for B2
B14: hz18A10-VHm1 + hz18A10-VL (antibody, V domains shown)
VH: B1 VH with H31T, A56G, Y102H, A103F
VL: B2 VL with Y30S, S31N
notes: as for B2
B15: hz18A10-VHm2 + hz18A10-VLm9 (antibody, V domains shown)
VH: B1 VH with H31T, A56G, Y102H, A103Y
VL: B2 VL
notes: as for B2
B16: hz18A10-VH + hz18A10-VLm16 (antibody, V domains shown)
VH: B1 VH with H31T, A56G
VL: B2 VL with Y30S, S31N, S50R, N53R, T56P
notes: as for B2
B17: hz18A10-VH + hz18A10-VLm2 (antibody, V domains shown)
VH: B1 VH with H31T, A56G
VL: B2 VL with Q27Y, Y30S, S31N
notes: as for B2
B18: hz18A10-VHm1 + hz18A10-VLm11 (antibody, V domains shown)
VH: B1 VH with H31T, A56G, Y102H, A103F
VL: B2 VL with Y30S, S31N, S50R
notes: as for B2
B19: hz18A10-VH + hz18A10-VLm13 (antibody, V domains shown)
VH: B1 VH with H31T, A56G
VL: B2 VL with Y30S, S31N, N53R
notes: as for B2
B20: hz18A10-VHm2 + hz18A10-VLm11 (antibody, V domains shown)
VH: B1 VH with H31T, A56G, Y102H, A103Y
VL: B2 VL with Y30S, S31N, S50R
notes: as for B2
B21: hz18A10-VH + hz18A10-VLm4 (antibody, V domains shown)
VH: B1 VH with H31T, A56G
VL: B2 VL with S28F, Y30S, S31N
notes: as for B2
B22: hz18A10-VH + hz18A10-VLm10 (antibody, V domains shown)
VH: B1 VH with H31T, A56G
VL: B2 VL with Y30S, S31N, V33L
notes: as for B2
B23: hz18A10-VHm1 + hz18A10-VLm15 (antibody, V domains shown)
VH: B1 VH with H31T, A56G, Y102H, A103F
VL: B2 VL with Y30S, S31N, S50R, N53S
notes: as for B2
B24: hz18A10-VHm1 + hz18A10-VLm14 (antibody, V domains shown)
VH: B1 VH with H31T, A56G, Y102H, A103F
VL: B2 VL with Y30S, S31N, S50R, N53R
notes: as for B2
B25: hz18A10-VHm1 + hz18A10-VLm7 (antibody, V domains shown)
VH: B1 VH with H31T, A56G, Y102H, A103F
VL: B2 VL with Y30F, S31R
notes: as for B2

Changes are numbered by the printed parent chain.

In one experiment the target is T1, human IL-11 (AAH12506.1, Pro22-Leu199). Put plainly: BLI (Octet), antibody captured, human IL-11 in solution. A digest of the protocol: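 On a Fortebio Octet QKe System, antibodies in HBS-EP+ buffer were captured on anti-mouse IgG Fc or anti-human Fc biosensors. Human IL-11 was flowed over at 300 nM in the same buffer, with a 300-second association followed by a 300-second dissociation. Blank-subtracted curves were fitted to a 1:1 Langmuir binding model to give kon, koff and Kd.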
On the technique in general: Biolayer interferometry detects binding as a change in optical thickness at a sensor tip.
Molecule B1 registered a Kd of 0.101 nM, a koff of 0.0001 s⁻¹ and a kon of 993000 M⁻¹ s⁻¹.
B2 registered a dissociation constant Kd of 0.54 nM, a koff of 0.000463 s⁻¹ and a kon of 859000 M⁻¹ s⁻¹.
As for B3, binding was put at a Kd of 4.61 nM, the koff is 0.00331 s⁻¹ and the kon is 718000 M⁻¹ s⁻¹.
The corresponding values for B4 are 2.01 nM, 0.000963 s⁻¹ and 479000 M⁻¹ s⁻¹.
The corresponding values for B5 are 4.09 nM, 0.00281 s⁻¹ and 688000 M⁻¹ s⁻¹.
As to B6, binding was characterised by a dissociation constant (Kd) of 3.54 nM, the koff was found to be 0.00265 s⁻¹ and the kon came out at 750000 M⁻¹ s⁻¹.
The corresponding values for B7 are 0.45 nM, 0.000326 s⁻¹ and 725000 M⁻¹ s⁻¹.
For B8, in that order: 2.29 nM, 0.00158 s⁻¹ and 692000 M⁻¹ s⁻¹.
The corresponding values for B9 are 0.877 nM, 0.000794 s⁻¹ and 905000 M⁻¹ s⁻¹.
With B10, binding was characterised by a dissociation constant (Kd) of 1.8 nM, the koff was determined as 0.00134 s⁻¹ and the kon is 747000 M⁻¹ s⁻¹.
For B11, in that order: 3.94 nM, 0.00277 s⁻¹ and 704000 M⁻¹ s⁻¹.
For B12, in that order: 0.803 nM, 0.000746 s⁻¹ and 929000 M⁻¹ s⁻¹.
The corresponding values for B13 are 0.419 nM, 0.0003 s⁻¹ and 716000 M⁻¹ s⁻¹.
Molecule B14 registered a Kd of 2.17 nM, a koff of 0.00139 s⁻¹ and a kon of 640000 M⁻¹ s⁻¹.
For B15, in that order: 2.33 nM, 0.000941 s⁻¹ and 404000 M⁻¹ s⁻¹.
The corresponding values for B16 are 1.97 nM, 0.000938 s⁻¹ and 699000 M⁻¹ s⁻¹.
For B17, in that order: 2.3 nM, 0.00185 s⁻¹ and 806000 M⁻¹ s⁻¹.
Consider B18, for which the Kd amounted to 0.825 nM, the off-rate constant (koff) was 0.000287 s⁻¹ and the kon was determined as 348000 M⁻¹ s⁻¹.
The corresponding values for B19 are 3.99 nM, 0.00268 s⁻¹ and 673000 M⁻¹ s⁻¹.
For B20, in that order: 1.01 nM, 0.000317 s⁻¹ and 314000 M⁻¹ s⁻¹.
For B21, in that order: 3.12 nM, 0.00237 s⁻¹ and 760000 M⁻¹ s⁻¹.
In turn, B22 came in with a Kd of 4.06 nM, an off-rate (koff) of 0.00295 s⁻¹ and a kon of 727000 M⁻¹ s⁻¹.
On to B23, for which the dissociation constant Kd came out at 0.585 nM, the off-rate constant (koff) was 0.000265 s⁻¹ and the kon amounted to 453000 M⁻¹ s⁻¹.
For B24, in that order: 1.03 nM, 0.000341 s⁻¹ and 330000 M⁻¹ s⁻¹.
For B25, in that order: 2.4 nM, 0.0013 s⁻¹ and 544000 M⁻¹ s⁻¹.

The target of another experiment is T2, IL-11 (Cat. 12225-HNCE, Sino Biological …). Put plainly: cell-based or functional assay.
For B1, the “Blocking activity (IC50), STAT3-luc reporter” value (from here on “Blocking activity (IC50)”) was determined as 0.13 µg/mL.
Still for that read-out and setting: to B2 belongs 1.25 µg/mL; to B3, 19.3 µg/mL.
Same read-out and setting: to B4 belongs 11.1 µg/mL; to B5, 18.1 µg/mL; to B6, 11.6 µg/mL.
Same read-out and setting: next, B7: 3.47 µg/mL.
In the case of B8, the “Blocking activity (IC50)” value came to 11.6 µg/mL.
The same measure, in the same setting: to B9 belongs 2.6 µg/mL; to B10, 4.07 µg/mL; to B11, 15.2 µg/mL.
On the same count and under the same terms, to B12 belongs 3.12 µg/mL; to B13, 4.38 µg/mL; to B14, 10.9 µg/mL.
With B15, the “Blocking activity (IC50)” value was 13.9 µg/mL.
On to B16, for which the “Blocking activity (IC50)” value stood at 9.89 µg/mL.
As for B17, the “Blocking activity (IC50)” value was determined as 17.4 µg/mL.
On to B18, for which the “Blocking activity (IC50)” value came to 7.4 µg/mL.
The same measure, in the same setting: next, B19: 14.2 µg/mL; B20: 9.46 µg/mL.
As for B21, the “Blocking activity (IC50)” value was 16.4 µg/mL.
For B22, the “Blocking activity (IC50)” value stood at 12.7 µg/mL.
Still for that read-out and setting: to B23 belongs 1.88 µg/mL.
Still for that read-out and setting: to B24 belongs 9.68 µg/mL; to B25, 13.1 µg/mL.

Usually Kd stands for a measure of binding affinity in units of concentration. Low values mean a tighter complex, high ones a looser complex. In general, koff refers to the first-order rate constant of dissociation. A high value points to a short-lived complex. In general, kon refers to the second-order rate constant of association. Low readings indicate slower complex formation, high ones faster complex formation.
